B1: FIXa-A103N/N105S/K247N/N249S/R318Y/R338E/R403E/E410N (protein)
chain 1: not shown
chain 2: not shown
B2: FIXa-N260S/R318Y/R338E/R403E/E410N (protein)
chain 1: not shown
chain 2: not shown
B3: FIXa-D104N/K106S/Y155F/K247N/N249S/N260S (protein)
chain 1: not shown
chain 2: not shown
B4: FIXa-Y155F/K247N/N249S/R318Y/R403E/E410N (protein)
chain 1: not shown
chain 2: not shown
B5: FIXa-Y155F/K247N/N249S/N260S (protein)
chain 1: not shown
chain 2: not shown
B6: FIXa-R318Y/R338E/R403E/T412A (protein)
chain 1: not shown
chain 2: not shown
B7: FIXa-Y155F/R318Y/R338E/N346D/R403E/E410N (protein)
chain 1: not shown
chain 2: not shown
B8: FIXa-Y155F/N260S/R318Y/R338E/R403E/E410N (protein)
chain 1: not shown
chain 2: not shown
B9: FIXa-R318Y/R338E/T412A (protein)
chain 1: not shown
chain 2: not shown
B10: FIXa-D104N/K106S/K247N/N249S/N260S (protein)
chain 1: not shown
chain 2: not shown
B11: FIXa-Y155F/R338E/R403E/E410N (protein)
chain 1: not shown
chain 2: not shown
B12: FIXa-Y155F/K228N/K247N/N249S (protein)
chain 1: not shown
chain 2: not shown

molecular target: Factor X (FX), P00742
Sequence (P00742 whole entry, looked up): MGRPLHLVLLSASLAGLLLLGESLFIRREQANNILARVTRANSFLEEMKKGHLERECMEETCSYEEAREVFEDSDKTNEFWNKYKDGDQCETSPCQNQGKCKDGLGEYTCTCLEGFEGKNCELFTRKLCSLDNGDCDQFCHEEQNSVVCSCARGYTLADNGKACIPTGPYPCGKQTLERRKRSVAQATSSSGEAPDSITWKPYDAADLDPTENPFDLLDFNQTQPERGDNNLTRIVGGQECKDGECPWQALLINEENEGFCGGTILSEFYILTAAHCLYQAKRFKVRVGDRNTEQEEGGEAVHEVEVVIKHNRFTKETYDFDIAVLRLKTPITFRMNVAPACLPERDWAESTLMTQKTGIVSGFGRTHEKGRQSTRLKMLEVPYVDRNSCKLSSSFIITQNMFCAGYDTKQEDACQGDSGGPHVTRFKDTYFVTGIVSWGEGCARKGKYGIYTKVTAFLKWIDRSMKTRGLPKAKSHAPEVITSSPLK

Protein	% of WT kcat/KM (against Catalyst Biosciences WT FIXa)	KM	kcat/KM for activation of FX by FIXa in the Xase complex (FVIIIa, PC/PS vesicles, Ca2+), fluorogenic Spectrafluor FXa read-out	% of WT kcat/KM (against Catalyst Biosciences WT FIXa), FX activation in the Xase complex	kcat/KM for FX activation by FIXa in the Xase complex (FVIIIa, PC/PS vesicles, Ca2+), indirect fluorogenic Spectrafluor FXa assay	KM (nM) for activation of FX by FIXa in the Xase complex (FVIIIa, PC/PS vesicles, Ca2+), fluorogenic Spectrafluor FXa assay
B1	324%	0.028 µM	1.5e+08 M⁻¹ s⁻¹	–	–	–
B2	–	0.0724 µM	–	117%	5.3e+07 M⁻¹ s⁻¹	–
B3	–	0.0685 µM	–	18%	8.2e+06 M⁻¹ s⁻¹	68.5 nM
B4	–	0.125 µM	–	–	–	–
B5	–	0.0965 µM	–	43%	1.9e+07 M⁻¹ s⁻¹	96.5 nM
B6	–	0.0675 µM	–	–	–	–
B7	–	0.1 µM	–	139%	6.2e+07 M⁻¹ s⁻¹	100 nM
B8	–	0.0839 µM	–	156%	7e+07 M⁻¹ s⁻¹	83.9 nM
B9	–	0.0235 µM	–	661%	3e+08 M⁻¹ s⁻¹	–
B10	–	0.0612 µM	–	22%	9.8e+06 M⁻¹ s⁻¹	61.2 nM
B11	–	0.0336 µM	–	–	–	–
B12	115%	0.0792 µM	5.3e+07 M⁻¹ s⁻¹	–	–	–

Source: patent publication US11491212
